The results in this text go back to patent US20170052184A1 (published 2017).

Positions count from the first letter of the chain named. Where only a bound is given, the exact number is not on record here.

The term Kd denotes a measure of binding affinity in units of concentration. A high value points to a looser complex. Broadly, the koff is the rate constant with which the complex falls apart. Read a low koff as slow dissociation. What is called kon is a measure of how fast the partners come together. High values mean fast association, low ones slow association.

For assay [1], the target named is T1, HCV Core1-169 (hepatitis C virus (HCV-1), UniProt P26664 1-169).
T1 sequence: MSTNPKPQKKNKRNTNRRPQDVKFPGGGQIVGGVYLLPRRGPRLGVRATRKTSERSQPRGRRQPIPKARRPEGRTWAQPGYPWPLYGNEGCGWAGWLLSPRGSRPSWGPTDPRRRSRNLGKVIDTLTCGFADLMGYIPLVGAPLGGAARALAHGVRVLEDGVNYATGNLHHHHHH
Nature of the assay: SPR sandwich, capture mAb C11-3.

Assay [2] addresses T1, HCV Core1-169. The assay can be described thus: SPR sandwich, capture mAb C11-9.
Assay [3] addresses T1, HCV Core1-169. Nature of the assay: SPR sandwich, capture mAb C11-7.
Assay [4] concerns the target T1, HCV Core1-169. The assay can be described thus: SPR sandwich, capture mAb C11-14.
In assay [5] the target is T2, HCV Core 134-171-TT Peptide (hepatitis C virus (HCV-1 numbering) …).
T2 construct: also called ALRZ-9 peptide
Nature of the assay: SPR, captured mAb, peptide analyte. (In SPR one partner is held on a chip, and binding of the other changes the refractive index at the surface.)

B1: HCV 208B-826 (antibody, V domains shown)
VH: DVQLVESGGGLVQAGGSRKLSCAASGFPFSSFGMHWVRQAPEKGLEWVASISSRTSKIYYADNLKGRFTISRDNPKNTLFLQMTSLGSEDTAMYYCVRSVFGNSYWFFDVWGAGTTVTVSS
VL: DIVLTQSPATLSVTPGDRVSLSCRASQRIYNYLHWYQQKSHESPRLLTKYASQSISGIPSRFSGSGSGTDFILTINSVETEDFGMYFCQQSNSWPLTFGAGTKLELRR
As to B1, the expected percent binding in the assay with HCV Core1-169 [1], with HCV Core1-169 [2], with HCV Core1-169 [3] and in the assay with HCV Core1-169 [4] was at most 1% each time.

B2: HCV 208B-408 (antibody, V domains shown)
VH: EVKLVESGGGLVQPGGSLRLSCASSGFTFTDYYMSWVRQPPGKALEWLGFIRNKAYGYTTEFSASVNGRFTISRDDSQSVPYLQMNTLRAEDSATYYCARVLYYDYGGFAYWGQGTLVTVST
VL: DIQMTQSPASLSASVGETVTITCRASGNIHTYLAWYQQKQGKSPQLLVYNANTLADGVPSRFSGSGSGTQFSLKINSLQPDDFGSYYCQHFWSAPWTFGGGTQLEIKR
For B2, the expected percent binding with HCV Core1-169 [1], with HCV Core1-169 [2], with HCV Core1-169 [3] and in the assay with HCV Core1-169 [4] was at most 1% each time.

B3: HCV 208B-327 (antibody, V domains shown)
VH: EVQLVESGGGLVKPGGSLKLSCAASGFTFSDSYMYWVRQTPDQRLEWVATISDGGSYTFYPDSVKGRFTISRDNAQNNLYLQMSSLKSEDTAMYYCASPHAGYFGWFAYWGRGTLVTVSA
VL: DIVMTQAAFSNPVTPGTSVSISCRSSKSLLHSNGITYLYWYLQKPGQSPQLLIYQMSKIASGVPDRFRSSGSGTDFTLRISRVEAADVGVYYCAQNLELPWTFGGGTKLEIKR
For B3, the expected percent binding with HCV Core1-169 [1], with HCV Core1-169 [2], with HCV Core1-169 [3] and with HCV Core1-169 [4] was at most 1% in each case.

B4: HCV 208B-911 (antibody, V domains shown)
VH: QVHLQQPGAELVRPGVSVKLSCKASGYTFTTYSINWMKQRPGQGLEWIGNIYPSTSHTNYNQKFRDKATMTVDKSSSTAYMQLSSPTSEDSAVYYCTINAYSMDYWGQGTSVTVSS
VL: QIVLTQSPEIMSASPGEKVTITCSASSSVSFMYWFQQKPGTSPKLWIYITSNLASGVPTRFSGSGSGTSYSLTISRMEAEDAATYYCQQRSSFPYTFGGGTKLEMKR
For the molecule B4, the expected percent binding with HCV Core1-169 [1], with HCV Core1-169 [2], with HCV Core1-169 [3] and in the assay with HCV Core1-169 [4] was at most 1% in each case.

B5: HCV 208A-874 (antibody, V domains shown)
VH: QVQLQQPGAELVKPGASVKLSCKASGYTLSSYWMHWVKQRPGQGLEWIGEIHPSDSYTSYNQKFKDKATLTVDKSSSTAYMQLSSLTSEDSAVYYCARGGYYRYDEFAYWGQGTLVTVSA
VL: DIVMTQSHKFMSTSIGDRVSITCKASQNVSPAVAWYQQKPGQSPKLLIYSASSRYTGVPDRFTGSGSGTAFTFTISSVQAEDLAVYFCQQHFSTPWTFGGGTMLEIKR
Take B5: the expected percent binding in the assay with HCV Core1-169 [1], with HCV Core1-169 [2], with HCV Core1-169 [3] and with HCV Core1-169 [4] was at most 1% in each case.

B6: HCV 208A-422 (antibody, V domains shown)
VH: DVQLQESGPGLVNPSQSLSLTCSVTGYSITSGYYWIWIQQSPGNKLEWMGYIKYDGGNNYSPSLKNRISIARDTSKNQCFLKLNSVTIEDTATYYCTRGSDSFDYWGQGTTLTVSS
VL: DIVLTQSPASLAVSLGQRAIISCKASQSVSFAGTNLMHWYQQKPGQQPKLLIYRASNLETGVPTRFSGSGSRTDFTLNIHPVEEDDAATYYCQQSREYYTFGGGTKLEIKR
Consider B6, for which the expected percent binding in the assay with HCV Core1-169 [1], with HCV Core1-169 [2], in the assay with HCV Core1-169 [3] and with HCV Core1-169 [4] was at most 1% in each case.

B7: HCV 208A-442 (antibody, V domains shown)
VH: B6 VH with Q39R, S41F, C79F
VL: B6 VL
As for B7, the expected percent binding with HCV Core1-169 [1] is at most 1%; with HCV Core1-169 [2], at most 1%; with HCV Core1-169 [3] it was 1.6%; with HCV Core1-169 [4], at most 1%.

B8: HCV 208A-1064 (antibody, V domains shown)
VH: EVQLQQSGPELVKPGASVKISCKTSGYTFTEYAMHWMKQSHGKSLEWIGGINPTNGDTIYNQKFKDKAKLTVDRSSSTAYMELRSLTSDDSALFYCARRELDYFASWGQGTTLTVSS
VL: DIVLTQSPASLIVSLGQTATISCRASQSVSTSRFSYLHWIQQKPGQPPKLLIKYASNLESGVPVRFSGSGSGTDFTLNIHPVEEEDTATYFCQHSWEFPFTFGSGTKLKIKR
With B8, the expected percent binding with HCV Core1-169 [1] stood at 16.3%; with HCV Core1-169 [2] it was 10.5%; with HCV Core1-169 [3], 19.6%; in the assay with HCV Core1-169 [4] it was 16.3%. Further, the Kd in assay [5] came out at 210 pM. This molecule also returned a koff in assay [5] of 0.00034 s⁻¹. In assay [5], the kon came out at 1.6e+06 M⁻¹ s⁻¹.

B9: HCV 208A-692 (antibody, V domains shown)
VH: QGQMQQSGAELAKPGASVKLSCKTSGFTFSSSYISWLKQKPGQSLEWIAWIFAGTGNTNYNQKFTDKAQLTVDTSSSTAYMQLSSLTTEDSAIYYCAISGTGFTYWGQGTLVTVSA
VL: EVLMTQSPLSLPVSLGDQASISCRSSQSLEHSNGNTYLEWFLQRPGQPPKLLIYKVSSRFSGVPDRFSGSGSGTDFTLKISRVEAEDLGVYYCFQGSHVPFTFGSGTKLAIKR
On to B9, for which the expected percent binding with HCV Core1-169 [1], with HCV Core1-169 [2], with HCV Core1-169 [3] and in the assay with HCV Core1-169 [4] was at most 1% in each case.

B10: HCV 208B-178 (antibody, V domains shown)
VH: DVKLVESGGGLVKLGGSLKLSCAASGFTFSSYYMSWVRQTPEKRLELVAAINSNGGSTYYPDTVKGRFTISRDNAKNTLYLQMSSLKSEDTALYYCARHGGLGRRDWYFDVWGAGTTVTVSS
VL: DIVLTQSPASLAVSLGQRATISCRASESVDNYGISFMHWYQQKPGQPPKLLIYRASNLESGIPARFSGSGSRTDFTLTINPVETDDVATYYCQQSNKDPFTFGSGAKLEIKR
As to B10, the expected percent binding with HCV Core1-169 [1] is at most 1%; with HCV Core1-169 [2], at most 1%; in the assay with HCV Core1-169 [3], 1.7%; with HCV Core1-169 [4], at most 1%.

B11: HCV 208B-515 (antibody, V domains shown)
VH: QVQLQQPGAELVKPGASLKLSCRASGYTFTSYWIHWVKQRPGQGLEWIGEIDPSDSYTNYNQKFKGKATLTVDKSSRAAYMQLSSLTSEDSAVYYCARHYYGVFDSWGQGTKLTVSS
VL: QIVFTQYPAIMSASLGERVTMTCTASSSVTSSYLHWFQQKPGSSPKLWIYSTSNPGSGVPARFSGRGSGTSYSLSISSMEAEDAATYYCLQFHRSPWTFGGGTKLEIRR
Regarding B11, the expected percent binding with HCV Core1-169 [1], with HCV Core1-169 [2], with HCV Core1-169 [3] and with HCV Core1-169 [4] was at most 1% each time.

B12: HCV 208B-793 (antibody, V domains shown)
VH: EVKLVESGGGLVQPGGSLKLSCAASGFTFSSYAMSWVRQTPERRLEWVTYISNGGGSTYYSDTVKGRFTFSRDNAKNTLYLQMSSLKSEDTAMYYCARHGLGRTGFASWGQGTLVTVSA
VL: DIVMTQSHKFMSTSVGDRVSITCKASQDVGTAVAWYQQKPGQSPKLLIYWASTRHTGVPDRFTGSGSGTDFTLTISNVQSEDLADYFCQQYSNYLTFGAGTKLEVKR
For the molecule B12, the expected percent binding with HCV Core1-169 [1], in the assay with HCV Core1-169 [2], in the assay with HCV Core1-169 [3] and in the assay with HCV Core1-169 [4] was at most 1% in each case.

B13: HCV 208B-517 (antibody, V domains shown)
VH: QVQLKQSGPGLVQPSQSLSITCTVSGFSLITHGVHWVRQSPGKGLEWLGVIWSGGSTDYNAAFISRLSISKDTSKSQVFLKMSSLQADDTAIYYCARNGGATAFDYWGQGTTLTVSS
VL: DIVMTQSPATLSVTPGDRVSLSCRASQSISDYLHWYQQKSHESPRLLIKYASQSISGIPSRFRGSGSGSHFTLSINSVEPEDVGVYYCQNGHSFPWTFGGGTKLEIKR
On to B13, for which the expected percent binding in the assay with HCV Core1-169 [1], in the assay with HCV Core1-169 [2], with HCV Core1-169 [3] and in the assay with HCV Core1-169 [4] was at most 1% throughout.

B14: HCV 208B-822 (antibody, V domains shown)
VH: QVQLKQSGPGLVQPSQSLSITCTVSGFSLITYGVHWVRQSPGKGLEWLGVIWGGGSTGYNAAFVSRLNITKDNSKSQVFFKMNSLQPDDTAIYYCARNGGATVFDYWGQGTTLTVSS
VL: B13 VL with S28T, R63S
Take B14: the expected percent binding in the assay with HCV Core1-169 [1], with HCV Core1-169 [2], with HCV Core1-169 [3] and with HCV Core1-169 [4] was at most 1% each time.

B15: HCV 208A-210 (antibody, V domains shown)
VH: QVQLQQSGPELVKPGASMRISCKASGYTFTSYYVHWIKQRPGQGLEWIGCIYPGDVNTDYNEKFKGKATLTADKSSSTAYMQVSTLTSEDSAIYFCVLYYYGSFAYWGQGTLVTVSA
VL: EIVLTQSPAITAASLGQNVTITCRASSSVSYMHWYRQKSGTSPQLWIYEISRRASGVPARFRASGSGTSYSLTISSMEAEDAAIYYCQQWNYPLTFGAGTKLEVKR
Consider B15, for which the expected percent binding with HCV Core1-169 [1] is 1.2%; in the assay with HCV Core1-169 [2], at most 1%; in the assay with HCV Core1-169 [3] it was 1.6%; with HCV Core1-169 [4], at most 1%.
